Test results published in US9822148B2, “EGFR-binding peptide” (HOYA CORPORATION, priority 2012, dated 2017).
Where no end group is shown, it is not given here. The star is where a group is joined. FITC = O=C1OC2(c3ccc(O)cc3Oc3cc(O)ccc32)c2ccc(NC(=S)*)cc21; Ahx = NCCCCCC(=O)O

Legend:
rhEGFR = target: T1, rhEGFR (Homo sapiens, UniProt P00533); assay: Competition test between phage and synthetic peptide on solid phase rhEGFR; assay type: binding; conditions: for binding of the I-1010 phage to a rhEGFR (ratio of an input titer/output titer) on adding the peptide: peptide added at each concentration, up to 100 μM
T1 construct: purchased R&D Systems
Protocol: A rhEGFR that is a target protein was added to a 96-well microplate to be 1 μg/well, and stood still at 4° C. overnight to be thus formed into a solid phase. A protein solution was removed, 300 μl of a blocking buffer was added and the mixture was incubated at 37° C. for 1 hour to thus block the wells. After removal of the blocking buffer, the wells were washed three times with 200 μl of 0.5% TBST washing solution, and finally 100 μl of 0.5% TBST was added thereto. […] A reaction only of the I-1010 phage without adding both of the peptides was employed as a control. […] In the reaction, the mixture was gently shaken at room temperature for 1 hour. The reaction solution was removed and the wells were washed with 200 μl of 0.5% TBST ten times. 100 μl of 0.2 M glycine-HCl (pH 2.2) was then added to the wells and stirred by pipetting, thereafter gently shaking at room temperature for 10 minutes. The eluate was collected to a microtube from the wells and added with 15 μl of 1M Tris-HCl (pH 9.1) to be neutralized and a target binding phage solution was thus obtained. The binding ability of the collected phage was examined by a measurement of a titer.

A-431 cells = assay: In vitro imaging with FITC labeled peptide, confocal microscope, A-431 cells; assay type: cell-based, human; conditions: 100 μM FITC labeled peptide, 37° C., 1 hour
Protocol: A-431 cells were inoculated in a glass bottom dish to be 20×10^4 cells/dish and MCF7 cells were inoculated in a glass bottom dish to be 75×10^4 cells/dish, and cultured at 37° C. in the condition of CO2 for 24 hours. After culturing each kind of the cells for a specified time, EGF was added to have a concentration of 100 ng/mL and the mixture was cultured for 6 days. Thereafter, the culture solution in the dish was removed and washed with 1000 μL of a growth medium at 37° C. ten times. An aminocaproic acid linker was connected to an N terminal of a peptide and the peptide in which FITC was labeled in the opposite side of the connected linker (Pep055-F, Pep032-F ([…] (peptide irrelevant to binding to EGFR): SEQ ID No. 54)) (purity 80.6%, HPLC grade, AnyGen, Korea) was prepared to be 100 μM in a growth medium, and 1 mL of the medium was added and incubated at 37° C. for 1 hour. A staining fluid was removed and washed with 1 mL of a growth medium at 37° C. three times and thereto was finally added 1 mL of the medium. For observation, fluorescent observation was carried out by irradiating an exciting light laser with a wavelength of 488 nm using a confocal microscope (Leica SP2).

[1] = I-1010 phage 1×10^10 PFU, FIG. 6

Substance	binding of the I-1010 phage to a rhEGFR (ratio of an input titer/output titer) on adding the peptide (rhEGFR; [1])	stainability of A-431 cells (A-431 cells)	further results
GAASRTYLHELI (Random peptide) [Pep018, reference compound]	maintained	–	–
Pep055-F: Pep055 with an aminocaproic acid linker at the N terminal, labeled with FITC ({FITC-Ahx}-WHLSDLWQNAWH)	–	Staining of the cytoplasm of the A-431 cells was observed	–
Pep055: synthetic peptide obtained by artificially synthesizing the I-1010 phage displayed peptide (SEQ ID No. 2) (WHLSDLWQNAWH; I-1010)	inhibited concentration-dependently	–	peptide concentration from which the ratio of an input titer/output titer of the I-1010 phage dropped (rhEGFR; [1]): ≥ 1 µM
Pep056: synthetic peptide (SEQ ID No. 4) of the I-1012 phage displayed peptide (FHDWLPEVSPPD; I-1012)	–	–	binding of the I-1012 phage to EGFR on adding the peptide (rhEGFR; FIG. 7): inhibit
Pep057: synthetic peptide (SEQ ID No. 7) of the I-1015 phage displayed peptide (LHQSEWMYVDIH; I-1015)	–	–	binding of the I-1015 phage to EGFR on adding the peptide (rhEGFR; FIG. 8): inhibit
YLPLWRLSESHM ({FITC-Ahx}-YLPLWRLSESHM) [Pep032-F, reference compound]	–	scarcely stained	–
